Results reported in US20100041074A1 (FORERUNNER PHARMA RESEARCH, published 2010).

Assays:
[1] = molecular target: T1, GST fused GRP78 protein (GST-GRP78) purified from E. coli (human, UniProt P11021 19-654); assay: ELISA, plate coated with GST-GRP78 (1 µg/ml), HisTrap fractions diluted 40-fold, anti-flag detection
T1 construct: also called GRP78-GST fused protein; not shown: glutathione S-transferase (GST) encoded by the E. coli expression vector pGEX-6P-1 (Amersham Pharmacia), with the vector

[2] = molecular target: T2, GRP78 localized on the cell surface of human cancer cells (human, UniProt P11021 19-654); assay: FACS on DU145 cells, antibody 10 µg/ml
T2 construct: Endogenous GRP78 on untransfected human cancer cell lines (DU145, 22Rv1, LoVo, LNcap, MCF7 and others); also called GRP78 on the surface of DU145 cells; surface-located GRP78

[3] = molecular target: T3, GRP78 expressed in human cells (cell lysate) (human, UniProt P11021 19-654); assay: western blot, DU145 cell lysate, antibody 2 µg/ml
T3 construct: Endogenous GRP78 in lysates of human cell lines (DU145, MRC5 and others) after SDS-PAGE and blotting; also called GRP78 expressed in DU145 cells; GRP78 protein in cell lysates

[4] = molecular target: T1, GST fused GRP78 protein (GST-GRP78) …; assay: western blot, GST fused GRP78 protein (0.1 ug), antibody 2 µg/ml
[5] = molecular target: T4, GST-GRP78 (376-415) (human, UniProt G3I8R9 376-415 (Cricetulus griseus entry)); assay: western blot of GST fused GRP78 fragments (345-385, 376-415, 406-445)
T4 construct: not shown: glutathione S-transferase (GST) encoded by the E. coli expression vector pGEX-6P-1, with the vector's linker

[6] = molecular target: GRP78 expressed in hamster ovary cells (DG44), cell lysate (hamster, UniProt G3I8R9 19-654); assay: western blot of NP40 lysate of DG44 cells with GA-20 antibody (2 µg/ml)
[7] = molecular target: T5, GRP78 expressed in mouse cells (Ba/F3, NIH3T3), cell lysate (mouse, UniProt P20029 20-655); assay: western blot of NP40 lysates of Ba/F3 and NIH3T3 cells with GA-20 antibody (2 µg/ml)
[8] = molecular target: T6, GRP78 protein (amino acids 19-654) purified from E. coli (human, UniProt P11021 19-654); assay: ELISA, plate coated with GRP78 protein purified from E. coli, hybridoma culture supernatant
T6 construct: Cut from the GST fusion with PreScission Protease and gel filtered; also called glucose-regulated protein 78; BiP

[9] = molecular target: T3, GRP78 expressed in human cells (cell …); assay: western blot of cell lysates of human cell lines with GD-17 antibody (2 µg/ml)
[10] = molecular target: T5, GRP78 expressed in mouse cells (Ba/F3, …); assay: western blot of cell lysates of mouse cell lines with GD-17 antibody (2 µg/ml)
[11] = molecular target: T2, GRP78 localized on the cell surface of …; assay: FACS on prostate cancer cell lines DU145 and 22Rv1, hybridoma culture supernatant
[12] = molecular target: MBP-GRP78 (376-415) (human, UniProt G3I8R9 376-415 (Cricetulus griseus entry)); assay: ELISA, plate coated with MBP-GRP78 (376-415) (1 µg/ml), hybridoma culture supernatant
[13] = molecular target: T2, GRP78 localized on the cell surface of …; assay: cell-based or functional assay
[14] = molecular target: T1, GST fused GRP78 protein (GST-GRP78) …; assay: ELISA, plate coated with GST-GRP78 (1 µg/ml), anti-flag detection; same value told for specimens stored at 4° C., left at 37° C. overnight, or frozen and thawed

B1: toxin-labeled GA-20 single-chain Fv antibody (GA20-PE40) (scFv)
scFv: MDHHHHHHHHHHKLEVQLQQSGPELVKPGASVKISCKTSGYTFTEYTMHWVKQSHGKSLEWIGGINPNNGGTSYNQKFKGKATLTVDKSSSTAYMELRSLTSEDSAVYYCAREKYGNYYAMDYWGQGTSVTVSSGGGGSGGGGSGGGGSDIVMSQSPSSLAVSAGEKVTMSCKSSQSLLNSRTRKNYLAWYQQKPGQSPKLLIYWASTRESGVPDRFTGSGSGTDFTLTISSVQAEDLAVYYCKQSYNLRTFGGGTKLEIKEFGGAPEFPKPSTPPGSSGLEGGSLAALTAHQACHLPLETFTRHRQPRGWEQLEQCGYPVQRLVALYLAARLSWNQVDQVIRNALASPGSGGDLGEAIREQPEQARLALTLAAAESERFVRQGTGNDEAGAANADVVSLTCPVAAGECAGPADSGDALLERNYPTGAEFLGDGGDVSFSTRGTQNWTVERLLQAHRQLEERGYVFVGYHGTFLEAAQSIVFGGVRARSQDLDAIWRGFYIAGDPALAYGYAQDQEPDARGRIRNGALLRVYVPRSSLPGFYRTSLTLAAPEAAGEVERLIGHPLPLRLDAITGPEEEGGRLETILGWPLAERTVVIPSAIPTDPRNVGGDLDPSSIPDKEQAISALPDYASQPGKPPDYKDDDDKKDEL
notes: also called GA20scFv-PE40; toxin-labeled GA-20 scFv antibody
- binding result [1]: binds

B2: GA-20 antibody (antibody, IgM, V domains shown)
VH: EVQLQQSGPELVKPGASVKISCKTSGYTFTEYTMHWVKQSHGKSLEWIGGINPNNGGTSYNQKFKGKATLTVDKSSSTAYMELRSLTSEDSAVYYCAREKYGNYYAMDYWGQGTSVTVSS
VL: DIVMSQSPSSLAVSAGEKVTMSCKSSQSLLNSRTRKNYLAWYQQKPGQSPKLLIYWASTRESGVPDRFTGSGSGTDFTLTISSVQAEDLAVYYCKQSYNLRTFGGGTKLEIK
notes: Mouse monoclonal from hybridoma, subtype M (IgM); light chain cloned with a kappa primer
- binding result [2]: binds
- binding result [3]: binds
- binding result [4]: binds
- binding result [5]: binds
- binding result [6]: binds
- binding result [7]: binds
- binding result [8]: binds

B3: GD-17 antibody (antibody, IgG1, V domains shown)
VH: QVQLQQSGAELARPGASVKLSCKASGYTFTSYWMHWVKQRPGQGLEWIGAIYPGDGDTRYTQKFKGKATLTADKSSSTAYMQLSSLASEDSAVYYCASGITAVADYWGQGTTLTVSS
VL: DVVMTQTPLSLPVSLGDQASISCRSSQSLVHSNGNTYLHWYLQKPGQSPKLLIYKVSNRFSGVPDRFSGSGSGTDFTLKISRVEAEDLGVYFCSQSTHVPLTFGAGTKLELK
notes: Mouse monoclonal from hybridoma, subtype G1 (IgG1)
- binding result [9]: binds
- binding result [10]: binds
- binding result [11]: binds
- binding result [12]: binds

B4: toxin-labeled GD17 single-chain antibody (GD17scFv-PE40) (scFv)
scFv: MDHHHHHHHHHHKLQVQLQQSGAELARPGASVKLSCKASGYTFTSYWMHWVKQRPGQGLEWIGAIYPGDGDTRYTQKFKGKATLTADKSSSTAYMQLSSLASEDSAVYYCASGITAVADYWGQGTTLTVSSGGGGSGGGGSGGGGSDVVMTQTPLSLPVSLGDQASISCRSSQSLVHSNGNTYLHWYLQKPGQSPKLLIYKVSNRFSGVPDRFSGSGSGTDFTLKISRVEAEDLGVYFCSQSTHVPLTFGAGTKLELKEFGGAPEFPKPSTPPGSSGLEGGSLAALTAHQACHLPLETFTRHRQPRGWEQLEQCGYPVQRLVALYLAARLSWNQVDQVIRNALASPGSGGDLGEAIREQPEQARLALTLAAAESERFVRQGTGNDEAGAANADVVSLTCPVAAGECAGPADSGDALLERNYPTGAEFLGDGGDVSFSTRGTQNWTVERLLQAHRQLEERGYVFVGYHGTFLEAAQSIVFGGVRARSQDLDAIWRGFYIAGDPALAYGYAQDQEPDARGRIRNGALLRVYVPRSSLPGFYRTSLTLAAPEAAGEVERLIGHPLPLRLDAITGPEEEGGRLETILGWPLAERTVVIPSAIPTDPRNVGGDLDPSSIPDKEQAISALPDYASQPGKPPDYKDDDDKKDEL
notes: also called GA17_scFv-PE40
- cytotoxic activity, EC50 on MCF7 and 22Rv1 cells [13]: 2 to 4 nM
- EC50 [14]: ~1.3 nM

B5: GD-4 antibody (antibody, IgG1, V domains shown)
VH: EVQLVETGGGLVQPKGSLKLSCAASGFTFNTNAMNWVRQAPGKGLEWVARIRSKSNNYAAYYADSVKDRFTISRDDSQSMLYLQMNNLKTEDTAMYYCVREGYGYSLYFDYWGQGTTLTVSS
VL: DIVMTQSPTFLAVTASKKVTINCTASESLYSSKHKVHYLAWYQKKPDQSPKLLIYGASNRYIGVPDRFTGSGSGTDFTLTISSVQVEDLTHYYCAQFYSYPLTFGAGTKLELK
notes: as for B3
- binding result [11]: binds
- binding result [12]: binds

B6: GC-18 antibody (antibody, IgG1, V domains shown)
VH: DVRLQESGPGQVKPSQTVSLTCSVTGYSITNGNHWWNWIRQVSGSKLEWIGYISSSGSTDSNPSLKSRISITRDTSKNQLFLQLNSVTTEDIATYYCARGYYFDYWGQGTTLTVSS
VL: DIVLTQSPASLAVSLGQSVTISCRASESVEYYGTSLMQWYQQKPGQPPKLLIYATSNVESGVPARFSGSGSGTDFSLNIHPVEEDDIAMYFCQQSRKLPSTFGGGTKLEIK
notes: as for B3
- binding result [11]: binds
- binding result [12]: binds
